From patent US20180280504A1, “GLYCAN-INTERACTING COMPOUNDS AND METHODS OF USE” (SIAMAB THERAPEUTICS, INC., priority 2014, published 2018)
Changes are numbered by the printed parent chain. Numbers in names are those of the source.

Columns and labels:
[1] = test system: STn on bovine submaxillary mucin (BSM); test: Anti-STn BSM ELISA, non-treated and periodate-treated wells; type: binding; conditions: for hybridoma screening: specificity for STn: BSM ELISA without and after periodate treatment
Description: Anti-STn serum titer is determined using a murine anti-STn bovine submaxillary mucin (BSM) ELISA together with serum profiles observed by glycan microarray. 96-well plates are coated with 1 μg/well of BSM and incubated overnight at 4° C. O-acetylation of BSM antigen is removed by treating wells with 0.1 M sodium hydroxide. Specific binding to STn is determined by treatment of wells with sodium periodate. Periodate treatment destroys the […] side chain of sialic acid; therefore antibodies raised against STn should not bind to periodate-treated wells. Wells are blocked with PBS 1% ovalbumin (OVA). Serum samples to be assayed are serially diluted in PBS 1% OVA. A commercially available mouse anti-STn monoclonal antibody, 3F1 (SBH Sciences, Natick, Mass.) is used as a positive control. This antibody is also serially diluted in PBS with 1% OVA. A pool of serum from naïve wild type mice is used for the preparation of negative control samples. Detection of anti-STn antibodies present in serum is determined using an HRP-conjugated polyclonal goat anti-mouse IgG antibody (Jackson Immunoresearch, West Grove, Pa.). The reaction is stopped by addition of sulfuric acid (1.6 M). Optical densities are measured at 490 nm using a Spectramax microplate reader (Molecular Devices, Sunnyvale, Calif.). The serum titer is obtained by comparison of OD values with a cutoff value calculated as two standard deviations above the mean of optical density values of the negative control. Sample tests are considered positive if the mean optical density value is greater than the cutoff value.
Binding affinities of 18D2 and 18C7 to STn were compared to commercially available anti-STn antibodies using the BSM ELISA assay described in Example 2. Commercial anti-STn antibodies used for comparison included 3F1 (SBH Sciences, Natick, Mass.,) TAG-72 clone B72.3 (Thermo Fisher Scientific, Waltham, Mass.,) TAG-72 clone CC49 (Santa Cruz Biotechnology, Santa Cruz, Calif.) as well as a negative control antibody against c-myc (Thermo Fisher Scientific, Waltham, Mass.). Each antibody was titrated using a 7-point, 1:5 serial dilution starting from 100 nM. Titrated antibodies were added to BSM ELISA plates containing wells that were non-treated or treated with sodium periodate. Antibody binding was determined using HRP-conjugated polyclonal goat anti-mouse IgG antibody (Jackson Immunoresearch Laboratories, West Grove, Pa.). The reaction was developed using an HRP substrate and stopped with 1.6 M sulfuric acid. Optical densities were measured at 490 nm using a Spectramax microplate reader. […] The half maximal effective concentration (EC50) for each antibody was calculated using a non-linear regression analysis carried out on periodate subtracted data.

[2] = test system: MDA-MB-231 cells expressing cell-surface Neu5Ac-STn; test: Flow cytometry assay to quantify antibody internalization; type: cell-based, human; conditions: for % cells exhibiting 488 fluorescence: 4° C.; for internalization (conclusion): Neu5Ac-STn-overexpressing MDA-MB-231 cells
Description: For analysis, stably transfected variants of MDA-MB-231 cells (clone TAH3.P10) that express high levels of cell surface-bound Neu5Ac-STn are harvested using 10 mM EDTA and washed with PBS comprising 1% BSA before pelleting by light centrifugation. Cell numbers and viability are determined by trypan blue dye exclusion analysis and cell concentrations are adjusted to 5×10^6 cells/ml in PBS with 1% BSA. 50 μl of cells are added to each well of an assay plate. Cells are combined with 50 μl solutions of antibody or fluorescently-labeled antibody and incubated for 1 hour at 4° C. Following this incubation period, cells are washed with PBS to remove unbound antibody and aliquots are removed for incubation for various times (15, 30, 60 minutes) at 37° C. to allow bound antibody to internalize at a physiologically relevant temperature. After each incubation, cell surface-bound antibody is removed by treating cells with acidic medium (150 mM NaCl, pH=2.5) Cells treated with unlabeled antibody are washed with PBS and fixed with paraformaldehyde fixation buffer (PFA) containing 3% paraformaldehyde and 2% sucrose in PBS for 15 minutes at room temperature. These cells are rinsed again in PBS and treated with blocking buffer made up of PBS with 1% bovine serum albumin (BSA). Cells are incubated for 30 min at room temperature, rinsed in PBS and treated with secondary antibody (allophycocyanin-labeled goat-anti-mouse IgG) for 2 hours at room temperature. All cells are then washed with PBS and subjected to flow cytometry analysis wherein 10,000 events are recorded for each sample. Residual fluorescent signal in acid-treated samples is further quenched via treatment with trypan blue dye.
Flow cytometry analysis was carried out in order to quantify the extent of antibody internalization according to the procedure of Example 15. MDA-MB-231 cells expressing high levels of cell-surface bound Neu5Ac-STn were harvested using StemPro Accutase buffer and washed with PBS comprising 5% FBS before pelleting by light centrifugation. Cell numbers and viability were determined by trypan blue dye exclusion analysis and cell concentrations were adjusted to 5×10^6 cells/ml in PBS with 5% FBS. 50 μl of cells were added to each well of an assay plate. Cells were then combined with 50 μl solutions of antibody S3F or ALEXA FLUOR® 488-conjugated antibodies S3F, 7G9 or GB26.6 and incubated for 1 hour at 4° C. Following this incubation period, cells were washed with PBS to remove unbound antibody and aliquots were removed for incubation for various times (15, 30, 60 minutes) at 37° C. After each incubation, cells were treated with acidic medium (150 mM NaCl, pH=2.5) to remove surface-bound antibody. Cells treated with unlabeled S3F were washed with PBS 5% FCS. Secondary antibody (allophycocyanin-labeled goat-anti-mouse IgG) was added to the cells and incubated for 30 min at 4° C., rinsed in PBS 5% FBS and kept on ice until flow cytometry analysis. All cells were then washed with PBS and subjected to flow cytometry analysis wherein 10,000 events were recorded for each sample.
Culturing and harvesting of MDA-STn+ cells was performed according to Example 14. Staining of MDA-STn+ cells with S3F antibody included either unlabeled S3F or S3F directly labeled with ALEXA FLUOR® 488 (Thermo Fisher Scientific, Pittsburgh, Pa.). Stained control vials were kept at 4° C. until analysis was performed. Controls included a GB26.6 antibody negative control for STn binding, unstained control, and unlabeled S3F antibody followed by an APC secondary antibody. Vials for each experimental time point (15, 30 and 60 min) were incubated in complete media at 37° C. 5% CO2 to allow for antibody internalization. Immediately prior to analysis by flow cytometry, non-internalized antibody was stripped from the cell surface of experimental samples using 150 mM NaCl pH 2.5 (acidic buffer).

[3] = ALEXA FLUOR 488-conjugated antibody, acid
[4] = ALEXA FLUOR 488-conjugated antibody, no acid

B1: 18C7: anti-STn mouse monoclonal, IgG2c κ, from mouse #4436; VH SEQ ID NO: 4, VL SEQ ID NO: 5 (antibody, V domains shown)
VH: QVTLKESGPGILQPSQTLSLTCSFSGFSLSTFGMGVGWIRQPSGKGLEWLAHIWWDDDKYYNPALKSRLTISKDTSKNQVFLKIANVDTADTATYYCARIAYYYGSERDYWGQGTTLTVSS
VL: QIVLTQSPAIMSASPGEKVTMTCSASSSISYMHWYHQKPGTSPKRWIYDTSKLASGVPARFSGSGSGTSYSLTISSMEAEDAATYYCHQRSSYTFGGGTKLEIKR
[1]
  hybridoma screening: specificity for STn: specific for STn
[1]; BSM ELISA, wells not treated with sodium periodate
  binding to non-treated wells: bound non-treated wells
[1]; BSM ELISA, wells treated with sodium periodate
  binding to periodate-treated wells: did not bind to periodate-treated wells
[1]; non-linear regression on periodate subtracted data, 7-point 1:5 dilution from 100 nM
  EC50: 62.5 nM

B2: S3F: 3F1 variable domains combined with IgG2a constant domains; heavy chain SEQ ID NO: 63, light chain SEQ ID NO: 64 (antibody)
heavy: QVQLQQSDAELVKPGASVKISCKASGYTFTDHAIHWVKQKPEQGLDWIGYISPGNGDIKYNEKFKDKVTLTADKSSSTACMHLNSLTSEDSAVYFCKRSLLALDYWGQGTTLTVSSAKTTAPSVYPLAPVCGDTTGSSVTLGCLVKGYFPEPVTLTWNSGSLSSGVHTFPAVLQSDLYTLSSSVTVTSSTWPSQSITCNVAHPASSTKVDKKIEPRGPTIKPCPPCKCPAPNLLGGPSVFIFPPKIKDVLMISLSPIVTCVVVDVSEDDPDVQISWFVNNVEVHTAQTQTHREDYNSTLRVVSALPIQHQDWMSGKEFKCKVNNKDLPAPIERTISKPKGSVRAPQVYVLPPPEEEMTKKQVTLTCMVTDFMPEDIYVEWTNNGKTELNYKNTEPVLDSDGSYFMYSKLRVEKKNWVERNSYSCSVVHEGLHNHHTTKSFSRTPGK
light: DIVMTQSHKFMSTSVGDRVSITCKASQDVGTNIAWYQQKPGRSPKVLIYSASTRHTGVPDRFTGSGSGTDFTLTISNVQSEDLTDYFCQQYSSFPLTFGVGTKLELKRADAAPTVSIFPPSSEQLTSGGASVVCFLNNFYPKDINVKWKIDGSERQNGVLNSWTDQDSKDSTYSMSSTLTLTKDEYERHNSYTCEATHKTSTSPIVKSFNRNEC
[2]; ALEXA FLUOR 488-conjugated antibody, then 37° C. 15 min, acid
  % cells exhibiting 488 fluorescence: 22.5%
[2]; ALEXA FLUOR 488-conjugated antibody, then 37° C. 15 min, no acid
  % cells exhibiting 488 fluorescence: 56.6%
[2]; ALEXA FLUOR 488-conjugated antibody, then 37° C. 30 min, acid
  % cells exhibiting 488 fluorescence: 25.9%
[2]; ALEXA FLUOR 488-conjugated antibody, then 37° C. 30 min, no acid
  % cells exhibiting 488 fluorescence: 53.1%
[2]; ALEXA FLUOR 488-conjugated antibody, then 37° C. 60 min, acid
  % cells exhibiting 488 fluorescence: 31.5%
[2]; ALEXA FLUOR 488-conjugated antibody, then 37° C. 60 min, no acid
  % cells exhibiting 488 fluorescence: 50.9%
[2]; [3]
  % cells exhibiting 488 fluorescence: 9.29%
[2]; [4]
  % cells exhibiting 488 fluorescence: 57.9%
[2]; ALEXA FLUOR 488-conjugated antibody, no acid, range over samples
  % of cells exhibiting fluorescence after the staining period: 50-57%
[2]
  internalization (conclusion): can be internalized

B3: 10A5: anti-STn mouse monoclonal, IgG2c κ, from mouse #4406; VH SEQ ID NO: 6, VL SEQ ID NO: 7 (antibody, V domains shown)
VH: QVQLKESGPGLVAPSQSLSITCTVSGFSLTSYGVSWVRQPPGKGLEWLGVIWGDGSTNYHSSLISRLSISKDNSKSQVFLKLNSLQTDDTATYYCARAFVYWGQGTLVTVSA
VL: QIVLTQSPAIMSASPGEKVTMTCSASSSVSYIHWYQQKSGTSPKRWIYDTSKLASGVPARFSGSGSGTSYSLTISSMEAEDAATYYCQQWSSNPPMLTFGAGTKLELK
[1]
  hybridoma screening: specificity for STn: specific for STn

B4: 8C11: anti-STn mouse monoclonal, IgG2b κ, from mouse #4407; VH SEQ ID NO: 8, VL SEQ ID NO: 9 (antibody, V domains shown)
VH: B3 VH with S62A, S68I, A96T, R97K, A98G, V100T
VL: QIVLTQSPAIMSASPGEKVTMTCSASSSVSYMHWYQQKSGTSPKRWIFDTSKLASGVPARFSGSGSGTSYSLTISSMEAEDAATYYCQQWSSNLLTFGAGTKLELK
[1]
  hybridoma screening: specificity for STn: specific for STn

B5: 7G9: anti-STn mouse monoclonal, IgG2b κ, from mouse #4407; VH SEQ ID NO: 12, VL SEQ ID NO: 9 (antibody, V domains shown)
VH: B3 VH with S17N, S35N, S62A, S68I, D72E, D88N, A96T, R97K, A98G
VL: B4 VL
[1]
  hybridoma screening: specificity for STn: specific for STn
[2]; [3]
  % cells exhibiting 488 fluorescence: approximately 70%
[2]; [4]
  % cells exhibiting 488 fluorescence: approximately 80%
[2]; ALEXA FLUOR 488-conjugated antibody, 37° C. for various times
  % fluorescent cells prior to acid treatment and trypan blue exposure: 60-80%
[2]; ALEXA FLUOR 488-conjugated antibody, 37° C., trypan blue quench of surface signal
  % of cells exhibiting fluorescence after acidic buffer and trypan blue: 20-45%
[2]; ALEXA FLUOR 488-conjugated antibody, stained at 4° C., trypan blue
  % fluorescent cells after trypan blue: less than 20%
[2]
  internalization (conclusion): successfully internalized

B6: 2D4: anti-STn mouse monoclonal, IgG2b κ, from mouse #4407; VH SEQ ID NO: 10, VL SEQ ID NO: 11 (antibody, V domains shown)
VH: B3 VH with K5Q, T30I, S35N, H60Q, S62A, S68I, A96T, R97K, A98G, V100A
VL: B4 VL with Y35F, F48Y
[1]
  hybridoma screening: specificity for STn: specific for STn
